# Source: publication PMC9765439, “Systems-Wide Dissection of Organic Acid Assimilation in Pseudomonas aeruginosa Reveals a Novel Path To Underground Metabolism” (mBio, 2022)
# Tests used:
# Assay in all cases: purified protein
# Type in all cases: biochemical, Pseudomonas aeruginosa
# purified protein [1] = substrate: CC(=O)SCCNC(=O)CCNC(=O)[C@H](O)C(C)(C)COP(=O)(O)OP(=O)(O)OC[C@H]1O[C@@H](n2cnc3c(N)ncnc32)[C@H](O)[C@@H]1OP(=O)(O)O; conditions: 0.5 mM oxaloacetate, 50 mM HEPES pH 7.5, 0.1 M KCl, 0.54 M glycerol, 37 °C
# purified protein [2] = substrate: O=C(O)CC(=O)C(=O)O; conditions: 0.5 mM propionyl-CoA, 50 mM HEPES pH 7.5, 0.1 M KCl, 0.54 M glycerol, 37 °C
# purified protein [3] = substrate: CCC(=O)SCCNC(=O)CCNC(=O)[C@H](O)C(C)(C)COP(=O)(O)OP(=O)(O)OC[C@H]1O[C@@H](n2cnc3c(N)ncnc32)[C@H](O)[C@@H]1OP(=O)(O)O; conditions: 0.5 mM oxaloacetate, 50 mM HEPES pH 7.5, 0.1 M KCl, 0.54 M glycerol, 37 °C
protein,measurement,setting,value
"PrpCPa (2-methylcitrate synthase, 2-MCS) (Pseudomonas aeruginosa PAO1) (protein, pET-19m, N-terminal TEV-cleavable His6 tag, cut; E. coli host; homodimer) MAEAKVLSGAGLRGQVAGQTALSTVGQEGAGLTYRGYDVRDLAAAAIFEEVAYLLLYGELPNKQQLDAYLKKLQGQRDLPQALKEVLERIPKDAHPMDVMRTGASVLGTLEPELSFDQQRDVADRLLAAFPAIMTYWYRFTHEGQRIDCNSDEPTIGGHFLALLHGKKPSELHVKVMNVSLILYAEHEFNASTFTARVCASTLSDLYSCVTGAIGSLRGPLHGGANEAAMELIERFSSPQEATAELLKMLERKDKIMGFGHAIYKDSDPRNEVIKGWSKQLADEVGDKVLFAVSEAIDKTMWEQKKLFPNADFYHASAYHFMGIPTKLFTPIFVCSRTSGWTAHVFEQRANNRIIRPSAEYTGVEQRAFVPLEQR",Km,purified protein [1],28 µM
same,kcat/Km,purified protein [1],114000 M⁻¹ s⁻¹
same,Km,purified protein [2],15.65 µM
same,kcat/Km,purified protein [2],228000 M⁻¹ s⁻¹
same,Km,purified protein [3],45 µM
